The results in this text go back to patent KR20230148435A.

Experiment [1] addresses HGF protein (hepatocyte growth factor) (UniProt P14210). Nature of the experiment: ELISA, HGF coated on plate, 24 h culture supernatant of YYB-103-1XX+YYB-101 scFv CAR-T cells. (In general: An ELISA detects its analyte on a solid surface through an enzyme-linked reagent.)
Experiment [2] shares this target. Put plainly: ELISA, HGF coated on plate, YYB-101 at 1 ug/mL as positive control.

Chain of UniProt P14210 (P14210 32-728 limits assumed): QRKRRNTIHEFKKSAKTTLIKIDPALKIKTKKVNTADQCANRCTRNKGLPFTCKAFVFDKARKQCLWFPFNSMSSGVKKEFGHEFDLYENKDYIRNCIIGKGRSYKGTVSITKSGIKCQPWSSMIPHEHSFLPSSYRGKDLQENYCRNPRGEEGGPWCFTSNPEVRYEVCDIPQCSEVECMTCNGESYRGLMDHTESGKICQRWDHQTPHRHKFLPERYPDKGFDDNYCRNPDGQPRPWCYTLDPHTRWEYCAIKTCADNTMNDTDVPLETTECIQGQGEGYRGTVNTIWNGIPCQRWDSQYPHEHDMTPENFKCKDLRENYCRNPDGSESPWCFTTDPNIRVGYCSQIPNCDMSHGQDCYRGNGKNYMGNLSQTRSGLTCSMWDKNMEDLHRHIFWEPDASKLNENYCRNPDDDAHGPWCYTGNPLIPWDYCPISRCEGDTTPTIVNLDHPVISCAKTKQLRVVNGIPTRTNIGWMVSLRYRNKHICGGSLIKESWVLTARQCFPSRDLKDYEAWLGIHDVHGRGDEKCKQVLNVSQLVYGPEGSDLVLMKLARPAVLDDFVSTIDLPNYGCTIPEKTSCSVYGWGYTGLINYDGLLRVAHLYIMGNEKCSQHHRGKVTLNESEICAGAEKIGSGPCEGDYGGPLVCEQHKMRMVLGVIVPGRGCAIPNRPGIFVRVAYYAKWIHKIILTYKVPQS

B1: YYB-101 Single Chain Variable Fragment (scFv) (scFv)
scFv: DIQMTQSPSSLSASVGDRVTITCRASQGISNILAWYQQKPGKAPKLLIYGASNLESGVPSRFSGSGSGTDFTLTISSLQPEDFATYYCQSGYYSRGATFGQGTKVEIKGGGGSGGGGSGGGGSEVQLVESGGGLVQPGGSLRLSCAASGFTFSTYYMSWVRQAPGKGLEWVAYIGTSSGTTYYADSVKGRFTISRDGSKNTLYLQMNSLRAEDTAVYYCARGLGRINLWGQGTLVTVSS
As to B1, in experiment [1], the OD, 450nm (HGF 결합) came out at 2.63 OD 450 nm.

B2: YYB-101 (HGF neutralising antibody) (antibody, human IgG4 S228P, kappa, V domains shown)
VH: EVQLVESGGGLVQPGGSLRLSCAASGFTFSTYYMSWVRQAPGKGLEWVAYIGTSSGTTYYADSVKGRFTISRDGSKNTLYLQMNSLRAEDTAVYYCARGLGRINLWGQGTLVTVSS
VL: DIQMTQSPSSLSASVGDRVTITCRASQGISNILAWYQQKPGKAPKLLIYGASNLESGVPSRFSGSGSGTDFTLTISSLQPEDFATYYCQSGYYSRGATFGQGTKVEIKR
With B2, the OD, 450nm (HGF 결합) in experiment [2] was 3.02 OD 450 nm.
